Experimental data published in US20220205015A1 (NANYANG TECHNOLOGICAL UNIVERSITY, published 2022).
Like-named read-outs stand apart in the source and are kept apart here. Where no end group is shown, it is not given here.

What was measured:
[1] = test system: T1, LL37ARRA (CLLGDFARRAKEKIG)
T1 sequence: CLLGDFARRAKEKIG

[2] = target: T2, OmpT (omptin outer membrane protease of Escherichia coli), recombinant, reconstituted in detergent micelles (Escherichia coli, UniProt P09169 21-317); assay: cell-based or functional assay
T2 sequence: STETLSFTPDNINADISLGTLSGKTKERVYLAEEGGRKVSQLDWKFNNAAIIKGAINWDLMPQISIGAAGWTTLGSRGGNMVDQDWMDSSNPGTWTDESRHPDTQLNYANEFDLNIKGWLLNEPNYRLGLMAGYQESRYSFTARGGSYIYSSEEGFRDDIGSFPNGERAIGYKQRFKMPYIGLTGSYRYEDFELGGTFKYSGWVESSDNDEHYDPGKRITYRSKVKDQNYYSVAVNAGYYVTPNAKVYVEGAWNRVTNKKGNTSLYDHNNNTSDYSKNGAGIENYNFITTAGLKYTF

[3] = target: T3, LL37ARRA (CLLGDFARRAKEKIG)
T3 chain: CLLGDFARRAKEKIG

[4] = target: T4, LL37FRRY (CLLGDFFRRYKEKIG)
T4 chain: CLLGDFFRRYKEKIG

[5] = target: T5, LL37YRRA (CLLGDFYRRAKEKIG)
T5 chain: CLLGDFYRRAKEKIG

[6] = target: T6, LL37FRRV (CLLGDFFRRVKEKIG)
T6 chain: CLLGDFFRRVKEKIG

[7] = target: T7, LL37FRRA (CLLGDFFRRAKEKIG)
T7 chain: CLLGDFFRRAKEKIG

Molecule: PgtE (omptin protease, present on pathogenic Salmonella typhi)
- proteolytic activity, measured as the change in PT6 fluorescence with time [1]: OmpT exhibits a higher preference for LL37ARRA (SEQ ID NO: 11) than does PgtE

Molecule: CLLGDFFRRVKEKIG-NH2 [LL37FRRV (CLLGDFFRRVKEKIG)]
- incubation time with OmpT for an almost complete reduction in PT6 fluorescence [2]: > 40 min

Molecule: CLLGDFFRRAKEKIG [LL37FRRA (CLLGDFFRRAKEKIG)]
- colour of PT6 under UV-A light after incubation with OmpT [2]: ≤ 10 min
- incubation time with OmpT for an almost complete reduction in PT6 fluorescence [2]: < 20 min

Molecule: CLLGDFYRRAKEKIG [LL37YRRA (CLLGDFYRRAKEKIG)]
- colour of PT6 under UV-A light after incubation with OmpT [2]: ≤ 10 min
- incubation time with OmpT for an almost complete reduction in PT6 fluorescence [2]: < 20 min

Molecule: CLLGDFFRRYKEKIG [LL37FRRY (CLLGDFFRRYKEKIG)]
- colour of PT6 under UV-A light after incubation with OmpT [2]: ≤ 10 min
- incubation time with OmpT for an almost complete reduction in PT6 fluorescence [2]: < 20 min

B1: OmpT (omptin outer membrane protease of Escherichia coli), recombinant, reconstituted in detergent micelles (protein)
chain: T2 sequence
- proteolytic activity, measured as the change in PT6 fluorescence with time [3]: OmpT exhibits a higher preference for LL37ARRA (SEQ ID NO: 11) than does PgtE
- rate of cleavage by OmpT [4]: cleaved by the protease (OmpT) much more rapidly than the LL37FRRY peptide substrate used in Examples 1-5
- rate of cleavage by OmpT [5]: cleaved by the protease (OmpT) much more rapidly than the LL37FRRY peptide substrate used in Examples 1-5
- time to full cleavage by OmpT [5]: fully cleaved by OmpT in less than 20 min
- SAMDI-MS screen of a peptide array for cleavage by omptin proteases [6]: 400 times better then original peptide
- cleavage, confirmed by MALDI-TOF [6]: it was cleaved at the dibasic site (-R8-R9-) to yield two short fragments of eight and seven residues
- rate of cleavage by OmpT [7]: cleaved by the protease (OmpT) much more rapidly than the LL37FRRY peptide substrate used in Examples 1-5
- time to full cleavage by OmpT [7]: fully cleaved by OmpT in less than 20 min
